Laboratory results published in the supplement of paper PMC11316812.
± gives the standard deviation of the averaged measurements.

What was measured:
hTERT-HMEC = assay: percentage of EdU-negative (G0-arrested) nuclei per well, 72 h; higher = more G0 arrest; conditions: reference: sequence is the full UniProt precursor, the tested protein was the secreted form or ectodomain
MCF7 = assay: as above; conditions: reference: sequence is the full UniProt precursor, the tested protein was the secreted form or ectodomain
[1] = protein concentration 0.020665 µM
[2] = protein concentration 0.20665 µM
[3] = protein concentration 0.0357143 µM
[4] = protein concentration 0.357143 µM
[5] = protein concentration 0.0225 µM
[6] = protein concentration 0.03125 µM
[7] = protein concentration 0.3125 µM
[8] = protein concentration 0.00625 µM
[9] = protein concentration 0.0625 µM
[10] = protein concentration 0.00575 µM
[11] = protein concentration 0.0575 µM
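Note: secreted proteins added to cultured cells, EdU pulse at the end, nuclei found by Hoechst imaging, EdU status from nuclear versus surrounding ring intensity ratio, PBS as neutral control.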

Row | Sequence | percentage of EdU-negative (hTERT-HMEC; [5]) | percentage of EdU-negative (hTERT-HMEC; protein concentration 0.225 µM) | percentage of EdU-negative (MCF7; [5]) | percentage of EdU-negative (MCF7; protein concentration 0.225 µM) | also measured
1 | MKVSEAALSLLVLILIITSASRSQPKVPEWVNTPSTCCLKYYEKVLPRRLVVGYRKALNCHLPAIIFVTKRNREVCTNPNDDWVQEYIKDPNLPLLPTRNLSTVKIITAKNGQPQLLNSQ |  |  |  |  | percentage of EdU-negative (hTERT-HMEC; [1]): 5.16 ± 1.1%; percentage of EdU-negative (hTERT-HMEC; [2]): 5.51 ± 0.14%; percentage of EdU-negative (MCF7; [1]): 22.9 ± 1.1%; percentage of EdU-negative (MCF7; [2]): 25.9 ± 2.8%
2 | MKVSVAALSCLMLVAVLGSQAQFTNDAETELMMSKLPLENPVVLNSFHFAADCCTSYISQSIPCSLMKSYFETSSECSKPGVIFLTKKGRQVCAKPSGPGVQDCMKKLKPYSI |  |  |  |  | percentage of EdU-negative (hTERT-HMEC; [3]): 4.77 ± 0.69%; percentage of EdU-negative (hTERT-HMEC; [4]): 4.52 ± 1.2%; percentage of EdU-negative (MCF7; [3]): 24.9 ± 0.52%; percentage of EdU-negative (MCF7; [4]): 25.2 ± 0.81%
3 | MKVSVAALSCLMLVTALGSQARVTKDAETEFMMSKLPLENPVLLDRFHATSADCCISYTPRSIPCSLLESYFETNSECSKPGVIFLTKKGRRFCANPSDKQVQVCMRMLKLDTRIKTRKN | 4.81 ± 0.43% | 5.12 ± 0.82% | 22.9 ± 1.3% | 24.7 ± 1.1% | 
4 | MKVTGIFLLSALALLSLSGNTGADSLGREAKCYNELNGCTKIYDPVCGTDGNTYPNECVLCFENRKRQTSILIQKSGPC | 5.21 ± 1.1% | 4.61 ± 0.16% | 24 ± 0.32% | 25.6 ± 0.77% | 
5 | MKVVPSLLLSVLLAQVWLVPGLAPSPQSPETPAPQNQTSRVVQAPKEEEEDEQEASEEKASEEEKAWLMASRQQLAKETSNFGFSLLRKISMRHDGNMVFSPFGMSLAMTGLMLGATGPTETQIKRGLHLQALKPTKPGLLPSLFKGLRETLSRNLELGLTQGSFAFIHKDFDVKETFFNLSKRYFDTECVPMNFRNASQAKRLMNHYINKETRGKIPKLFDEINPETKLILVDYILFKGKWLTPFDPVFTEVDTFHLDKYKTIKVPMMYGAGKFASTFDKNFRCHVLKLPYQGNATMLVVLMEKMGDHLALEDYLTTDLVETWLRNMKTRNMEVFFPKFKLDQKYEMHELLRQMGIRRIFSPFADLSELSATGRNLQVSRVLQRTVIEVDERGTEAVAGILSEITAYSMPPVIKVDRPFHFMIYEETSGMLLFLGRVVNPTLL [Q9UK55] |  |  |  |  | percentage of EdU-negative (hTERT-HMEC; [6]): 4.46 ± 0.39%; percentage of EdU-negative (hTERT-HMEC; [7]): 11.5 ± 0.79%; percentage of EdU-negative (MCF7; [6]): 24.6 ± 0.79%; percentage of EdU-negative (MCF7; [7]): 29.5 ± 0.31%
6 | MKVWLLLGLLLVHEALEDVTGQHLPKNKRPKEPGENRIKPTNKKVKPKIPKMKDRDSANSAPKTQSIMMQVLDKGRFQKPAATLSLLAGQTVELRCKGSRIGWSYPAYLDTFKDSRLSVKQNERYGQLTLVNSTSADTGEFSCWVQLCSGYICRKDEAKTGSTYIFFTEKGELFVPSPSYFDVVYLNPDRQAVVPCRVTVLSAKVTLHREFPAKEIPANGTDIVYDMKRGFVYLQPHSEHQGVVYCRAEAGGRSQISVKYQLLYVAVPSGPPSTTILASSNKVKSGDDISVLCTVLGEPDVEVEFTWIFPGQKDERPVTIQDTWRLIHRGLGHTTRISQSVITVEDFETIDAGYYICTAQNLQGQTTVATTVEFS |  |  |  |  | percentage of EdU-negative (hTERT-HMEC; [8]): 4.49 ± 0.2%; percentage of EdU-negative (hTERT-HMEC; [9]): 5.36 ± 0.45%; percentage of EdU-negative (MCF7; [8]): 27.9 ± 0.57%; percentage of EdU-negative (MCF7; [9]): 29.4 ± 1%
7 | MKWLLLLGLVALSECIMYKVPLIRKKSLRRTLSERGLLKDFLKKHNLNPARKYFPQWEAPTLVDEQPLENYLDMEYFGTIGIGTPAQDFTVVFDTGSSNLWVPSVYCSSLACTNHNRFNPEDSSTYQSTSETVSITYGTGSMTGILGYDTVQVGGISDTNQIFGLSETEPGSFLYYAPFDGILGLAYPSISSSGATPVFDNIWNQGLVSQDLFSVYLSADDQSGSVVIFGGIDSSYYTGSLNWVPVTVEGYWQITVDSITMNGEAIACAEGCQAIVDTGTSLLTGPTSPIANIQSDIGASENSDGDMVVSCSAISSLPDIVFTINGVQYPVPPSAYILQSEGSCISGFQGMNLPTESGELWILGDVFIRQYFTVFDRANNQVGLAPVA [P0DJD7] |  |  |  |  | percentage of EdU-negative (hTERT-HMEC; [10]): 4.41 ± 0.41%; percentage of EdU-negative (hTERT-HMEC; [11]): 5.85 ± 0.73%; percentage of EdU-negative (MCF7; [10]): 25.5 ± 2.2%; percentage of EdU-negative (MCF7; [11]): 24.6 ± 1.6%
8 | MKWMVVVLVCLQLLEAAVVKVPLKKFKSIRETMKEKGLLGEFLRTHKYDPAWKYRFGDLSVTYEPMAYMDAAYFGEISIGTPPQNFLVLFDTGSSNLWVPSVYCQSQACTSHSRFNPSESSTYSTNGQTFSLQYGSGSLTGFFGYDTLTVQSIQVPNQEFGLSENEPGTNFVYAQFDGIMGLAYPALSVDEATTAMQGMVQEGALTSPVFSVYLSNQQGSSGGAVVFGGVDSSLYTGQIYWAPVTQELYWQIGIEEFLIGGQASGWCSEGCQAIVDTGTSLLTVPQQYMSALLQATGAQEDEYGQFLVNCNSIQNLPSLTFIINGVEFPLPPSSYILSNNGYCTVGVEPTYLSSQNGQPLWILGDVFLRSYYSVYDLGNNRVGFATAA | 4.89 ± 0.11% | 6.1 ± 0.73% | 24.38 ± 0.12% | 23.4 ± 0.35% | 
9 | MKYLRHRRPNATLILAIGAFTLLLFSLLVSPPTCKVQEQPPAIPEALAWPTPPTRPAPAPCHANTSMVTHPDFATQPQHVQNFLLYRHCRHFPLLQDVPPSKCAQPVFLLLVIKSSPSNYVRRELLRRTWGRERKVRGLQLRLLFLVGTASNPHEARKVNRLLELEAQTHGDILQWDFHDSFFNLTLKQVLFLQWQETRCANASFVLNGDDDVFAHTDNMVFYLQDHDPGRHLFVGQLIQNVGPIRAFWSKYYVPEVVTQNERYPPYCGGGGFLLSRFTAAALRRAAHVLDIFPIDDVFLGMCLELEGLKPASHSGIRTSGVRAPSQRLSSFDPCFYRDLLLVHRFLPYEMLLMWDALNQPNLTCGNQTQIY [Q9Y2A9] | 4.326 ± 0.034% | 7.879 ± 0.065% | 25.7 ± 2% | 30.2 ± 0.85% | 
10 | MKYTSYILAFQLCIVLGSLGCYCQDPYVKEAENLKKYFNAGHSDVADNGTLFLGILKNWKEESDRKIMQSQIVSFYFKLFKNFKDDQSIQKSVETIKEDMNVKFFNSNKKKRDDFEKLTNYSVTDLNVQRKAIHELIQVMAELSPAAKTGKRKRSQMLFRGRRASQ |  |  |  |  | percentage of EdU-negative (hTERT-HMEC; [6]): 92.2 ± 1.5%; percentage of EdU-negative (hTERT-HMEC; [7]): 96.92 ± 0.62%; percentage of EdU-negative (MCF7; [6]): 39.5 ± 2.2%; percentage of EdU-negative (MCF7; [7]): 42.7 ± 1.8%
11 | MLALLAASVALAVAAGAQDSPAPGSRFVCTALPPEAVHAGCPLPAMPMQGGAQSPEEELRAAVLQLRETVVQQKETLGAQREAIRELTGKLARCEGLAGGKARGAGATGKDTMGDLPRDPGHVVEQLSRSLQTLKDRLESLEHQLRANVSNAGLPGDFREVLQQRLGELERQLLRKVAELEDEKSLLHNETSAHRQKTESTLNALLQRVTELERGNSAFKSPDAFKVSLPLRTNYLYGKIKKTLPELYAFTICLWLRSSASPGIGTPFSYAVPGQANEIVLIEWGNNPIELLINDKVAQLPLFVSDGKWHHICVTWTTRDGMWEAFQDGEKLGTGENLAPWHPIKPGGVLILGQEQDTVGGRFDATQAFVGELSQFNIWDRVLRAQEIVNIANCSTNMPGNIIPWVDNNVDVFGGASKWPVETCEERLLDL | 5.346 ± 0.033% | 6.28 ± 1.3% | 24.1 ± 0.47% | 24.8 ± 0.78% | 
12 | MLALLCSCLLLAAGASDAWTGEDSAEPNSDSAEWIRDMYAKVTEIWQEVMQRRDDDGALHAACQVQPSATLDAAQPRVTGVVLFRQLAPRAKLDAFFALEGFPTEPNSSSRAIHVHQFGDLSQGCESTGPHYNPLAVPHPQHPGDFGNFAVRDGSLWRYRAGLAASLAGPHSIVGRAVVVHAGEDDLGRGGNQASVENGNAGRRLACCVVGVCGPGLWERQAREHSERKKRRRESECKAA | 7 ± 3.4% | 4.98 ± 0.59% | 23.8 ± 1% | 27 ± 0.74% | 
13 | MLALLVLVTVALASAHHGGEHFEGEKVFRVNVEDENHINIIRELASTTQIDFWKPDSVTQIKPHSTVDFRVKAEDTVTVENVLKQNELQYKVLISNLRNVVEAQFDSRVRATGHSYEKYNKWETIEAWTQQVATENPALISRSVIGTTFEGRAIYLLKVGKAGQNKPAIFMDCGFHAREWISPAFCQWFVREAVRTYGREIQVTELLDKLDFYVLPVLNIDGYIYTWTKSRFWRKTRSTHTGSSCIGTDPNRNFDAGWCEIGASRNPCDETYCGPAAESEKETKALADFIRNKLSSIKAYLTIHSYSQMMIYPYSYAYKLGENNAELNALAKATVKELASLHGTKYTYGPGATTIYPAAGGSDDWAYDQGIRYSFTFELRDTGRYGFLLPESQIRATCEETFLAIKYVASYVLEHLY | 5.24 ± 0.55% | 5.32 ± 0.42% | 24.5 ± 1.1% | 25.4 ± 0.42% | 
14 | MLAPGSSPGQRGRLALQWRQVSWITCWIALYAVEALPTCPFSCKCDSRSLEVDCSGLGLTTVPPDVPAATRTLLLLNNKLSALPSWAFANLSSLQRLDLSNNFLDRLPRSIFGDLTNLTELQLRNNSIRTLDRDLLRHSPLLRHLDLSINGLAQLPPGLFDGLLALRSLSLRSNRLQNLDRLTFEPLANLQLLQVGDNPWECDCNLREFKHWMEWFSYRGGRLDQLACTLPKELRGKDMRMVPMEMFNYCSQLEDENSSAGLDIPGPPCTKASPEPAKPKPGAEPEPEPSTACPQKQRHRPASVRRAMGTVIIAGVVCGVVCIMMVVAAAYGCIYASLMAKYHRELKKRQPLMGDPEGEHEDQKQISSVA [Q8N967] |  |  |  |  | percentage of EdU-negative (hTERT-HMEC; [6]): 5.33 ± 1%; percentage of EdU-negative (hTERT-HMEC; [7]): 5.93 ± 0.73%; percentage of EdU-negative (MCF7; [6]): 25.5 ± 0.63%; percentage of EdU-negative (MCF7; [7]): 25.5 ± 2.5%
